Patent US20150274828A1 (SHANGHAI SERUM BIOTECHNOLOGY, published 2015)

B1: Ame55 mutant, heavy chain 51A (antibody, V domains shown)
VH: EVQLVQSGAEVKKPGESLKISCKGSGYSFTSYWIGWVRQMPGKGLEWMGIAYPGDSDTRYSPSFQGQVTISADKSISTAYLQWSSLKASDTAMYYCARGIIYPSNVAVWGQGTLVTVSS
VL: SYELTQPPSVSVAPGQTARITCSGDALGDKYASWYQQKPGQAPVLVIYEDSKRPSGIPERFSGSNSGNTATLTISGTQAEDEADYYCSVWDGDWGMPVFGGGTKLTVLG
notes: Mutant of Ame55
B2: Ame55 mutant, heavy chain 99A (antibody, V domains shown)
VH: EVQLVQSGAEVKKPGESLKISCKGSGYSFTSYWIGWVRQMPGKGLEWMGIIYPGDSDTRYSPSFQGQVTISADKSISTAYLQWSSLKASDTAMYYCARAIIYPSNVAVWGQGTLVTVSS
VL: SYELTQPPSVSVAPGQTARITCSGDALGDKYASWYQQKPGQAPVLVIYEDSKRPSGIPERFSGSNSGNTATLTISGTQAEDEADYYCSVWDGDWGMPVFGGGTKLTVLG
notes: Mutant of Ame55
B3: Ame55 mutant, heavy chain 58A (antibody, V domains shown)
VH: EVQLVQSGAEVKKPGESLKISCKGSGYSFTSYWIGWVRQMPGKGLEWMGIIYPGDSDARYSPSFQGQVTISADKSISTAYLQWSSLKASDTAMYYCARGIIYPSNVAVWGQGTLVTVSS
VL: SYELTQPPSVSVAPGQTARITCSGDALGDKYASWYQQKPGQAPVLVIYEDSKRPSGIPERFSGSNSGNTATLTISGTQAEDEADYYCSVWDGDWGMPVFGGGTKLTVLG
notes: Mutant of Ame55
B4: Ame55 mutant, heavy chain 107S (antibody, V domains shown)
VH: EVQLVQSGAEVKKPGESLKISCKGSGYSFTSYWIGWVRQMPGKGLEWMGIIYPGDSDTRYSPSFQGQVTISADKSISTAYLQWSSLKASDTAMYYCARGIIYPSNVSVWGQGTLVTVSS
VL: SYELTQPPSVSVAPGQTARITCSGDALGDKYASWYQQKPGQAPVLVIYEDSKRPSGIPERFSGSNSGNTATLTISGTQAEDEADYYCSVWDGDWGMPVFGGGTKLTVLG
notes: Mutant of Ame55
B5: Ame55 mutant, heavy chain 54S (antibody, V domains shown)
VH: EVQLVQSGAEVKKPGESLKISCKGSGYSFTSYWIGWVRQMPGKGLEWMGIIYPSDSDTRYSPSFQGQVTISADKSISTAYLQWSSLKASDTAMYYCARGIIYPSNVAVWGQGTLVTVSS
VL: SYELTQPPSVSVAPGQTARITCSGDALGDKYASWYQQKPGQAPVLVIYEDSKRPSGIPERFSGSNSGNTATLTISGTQAEDEADYYCSVWDGDWGMPVFGGGTKLTVLG
notes: Mutant of Ame55
B6: Ame55 mutant, heavy chain 52D (antibody, V domains shown)
VH: EVQLVQSGAEVKKPGESLKISCKGSGYSFTSYWIGWVRQMPGKGLEWMGIIDPGDSDTRYSPSFQGQVTISADKSISTAYLQWSSLKASDTAMYYCARGIIYPSNVAVWGQGTLVTVSS
VL: SYELTQPPSVSVAPGQTARITCSGDALGDKYASWYQQKPGQAPVLVIYEDSKRPSGIPERFSGSNSGNTATLTISGTQAEDEADYYCSVWDGDWGMPVFGGGTKLTVLG
notes: Mutant of Ame55
B7: Ame55 mutant, heavy chain 104A (antibody, V domains shown)
VH: EVQLVQSGAEVKKPGESLKISCKGSGYSFTSYWIGWVRQMPGKGLEWMGIIYPGDSDTRYSPSFQGQVTISADKSISTAYLQWSSLKASDTAMYYCARGIIYPANVAVWGQGTLVTVSS
VL: SYELTQPPSVSVAPGQTARITCSGDALGDKYASWYQQKPGQAPVLVIYEDSKRPSGIPERFSGSNSGNTATLTISGTQAEDEADYYCSVWDGDWGMPVFGGGTKLTVLG
notes: Mutant of Ame55
B8: Ame55 mutant, heavy chain 59A (antibody, V domains shown)
VH: EVQLVQSGAEVKKPGESLKISCKGSGYSFTSYWIGWVRQMPGKGLEWMGIIYPGDSDTAYSPSFQGQVTISADKSISTAYLQWSSLKASDTAMYYCARGIIYPSNVAVWGQGTLVTVSS
VL: SYELTQPPSVSVAPGQTARITCSGDALGDKYASWYQQKPGQAPVLVIYEDSKRPSGIPERFSGSNSGNTATLTISGTQAEDEADYYCSVWDGDWGMPVFGGGTKLTVLG
notes: Mutant of Ame55
B9: Ame55 mutant, heavy chain 59N (antibody, V domains shown)
VH: EVQLVQSGAEVKKPGESLKISCKGSGYSFTSYWIGWVRQMPGKGLEWMGIIYPGDSDTNYSPSFQGQVTISADKSISTAYLQWSSLKASDTAMYYCARGIIYPSNVAVWGQGTLVTVSS
VL: SYELTQPPSVSVAPGQTARITCSGDALGDKYASWYQQKPGQAPVLVIYEDSKRPSGIPERFSGSNSGNTATLTISGTQAEDEADYYCSVWDGDWGMPVFGGGTKLTVLG
notes: Mutant of Ame55
B10: Ame55 mutant, heavy chain 99S (antibody, V domains shown)
VH: EVQLVQSGAEVKKPGESLKISCKGSGYSFTSYWIGWVRQMPGKGLEWMGIIYPGDSDTRYSPSFQGQVTISADKSISTAYLQWSSLKASDTAMYYCARSIIYPSNVAVWGQGTLVTVSS
VL: SYELTQPPSVSVAPGQTARITCSGDALGDKYASWYQQKPGQAPVLVIYEDSKRPSGIPERFSGSNSGNTATLTISGTQAEDEADYYCSVWDGDWGMPVFGGGTKLTVLG
notes: Mutant of Ame55
B11: Ame55 mutant, heavy chain 106A (antibody, V domains shown)
VH: EVQLVQSGAEVKKPGESLKISCKGSGYSFTSYWIGWVRQMPGKGLEWMGIIYPGDSDTRYSPSFQGQVTISADKSISTAYLQWSSLKASDTAMYYCARGIIYPSNAAVWGQGTLVTVSS
VL: SYELTQPPSVSVAPGQTARITCSGDALGDKYASWYQQKPGQAPVLVIYEDSKRPSGIPERFSGSNSGNTATLTISGTQAEDEADYYCSVWDGDWGMPVFGGGTKLTVLG
notes: Mutant of Ame55
B12: Ame55 mutant, heavy chain 54A (antibody, V domains shown)
VH: EVQLVQSGAEVKKPGESLKISCKGSGYSFTSYWIGWVRQMPGKGLEWMGIIYPADSDTRYSPSFQGQVTISADKSISTAYLQWSSLKASDTAMYYCARGIIYPSNVAVWGQGTLVTVSS
VL: SYELTQPPSVSVAPGQTARITCSGDALGDKYASWYQQKPGQAPVLVIYEDSKRPSGIPERFSGSNSGNTATLTISGTQAEDEADYYCSVWDGDWGMPVFGGGTKLTVLG
notes: Mutant of Ame55
B13: Ame55 mutant, heavy chain 107G (antibody, V domains shown)
VH: EVQLVQSGAEVKKPGESLKISCKGSGYSFTSYWIGWVRQMPGKGLEWMGIIYPGDSDTRYSPSFQGQVTISADKSISTAYLQWSSLKASDTAMYYCARGIIYPSNVGVWGQGTLVTVSS
VL: SYELTQPPSVSVAPGQTARITCSGDALGDKYASWYQQKPGQAPVLVIYEDSKRPSGIPERFSGSNSGNTATLTISGTQAEDEADYYCSVWDGDWGMPVFGGGTKLTVLG
notes: Mutant of Ame55
B14: Ame55 mutant, heavy chain 55A (antibody, V domains shown)
VH: EVQLVQSGAEVKKPGESLKISCKGSGYSFTSYWIGWVRQMPGKGLEWMGIIYPGASDTRYSPSFQGQVTISADKSISTAYLQWSSLKASDTAMYYCARGIIYPSNVAVWGQGTLVTVSS
VL: SYELTQPPSVSVAPGQTARITCSGDALGDKYASWYQQKPGQAPVLVIYEDSKRPSGIPERFSGSNSGNTATLTISGTQAEDEADYYCSVWDGDWGMPVFGGGTKLTVLG
notes: Mutant of Ame55
B15: Ame55 mutant, heavy chain 108A (antibody, V domains shown)
VH: EVQLVQSGAEVKKPGESLKISCKGSGYSFTSYWIGWVRQMPGKGLEWMGIIYPGDSDTRYSPSFQGQVTISADKSISTAYLQWSSLKASDTAMYYCARGIIYPSNVAAWGQGTLVTVSS
VL: SYELTQPPSVSVAPGQTARITCSGDALGDKYASWYQQKPGQAPVLVIYEDSKRPSGIPERFSGSNSGNTATLTISGTQAEDEADYYCSVWDGDWGMPVFGGGTKLTVLG
notes: Mutant of Ame55
B16: Ame55 mutant, heavy chain 101A (antibody, V domains shown)
VH: EVQLVQSGAEVKKPGESLKISCKGSGYSFTSYWIGWVRQMPGKGLEWMGIIYPGDSDTRYSPSFQGQVTISADKSISTAYLQWSSLKASDTAMYYCARGIAYPSNVAVWGQGTLVTVSS
VL: SYELTQPPSVSVAPGQTARITCSGDALGDKYASWYQQKPGQAPVLVIYEDSKRPSGIPERFSGSNSGNTATLTISGTQAEDEADYYCSVWDGDWGMPVFGGGTKLTVLG
notes: Mutant of Ame55
B17: Ame55 mutant, heavy chain 100A (antibody, V domains shown)
VH: EVQLVQSGAEVKKPGESLKISCKGSGYSFTSYWIGWVRQMPGKGLEWMGIIYPGDSDTRYSPSFQGQVTISADKSISTAYLQWSSLKASDTAMYYCARGAIYPSNVAVWGQGTLVTVSS
VL: SYELTQPPSVSVAPGQTARITCSGDALGDKYASWYQQKPGQAPVLVIYEDSKRPSGIPERFSGSNSGNTATLTISGTQAEDEADYYCSVWDGDWGMPVFGGGTKLTVLG
notes: Mutant of Ame55
B18: Ame55 mutant, heavy chain 60A (antibody, V domains shown)
VH: EVQLVQSGAEVKKPGESLKISCKGSGYSFTSYWIGWVRQMPGKGLEWMGIIYPGDSDTRASPSFQGQVTISADKSISTAYLQWSSLKASDTAMYYCARGIIYPSNVAVWGQGTLVTVSS
VL: SYELTQPPSVSVAPGQTARITCSGDALGDKYASWYQQKPGQAPVLVIYEDSKRPSGIPERFSGSNSGNTATLTISGTQAEDEADYYCSVWDGDWGMPVFGGGTKLTVLG
notes: Mutant of Ame55
B19: Ame55 mutant, heavy chain 56A (antibody, V domains shown)
VH: EVQLVQSGAEVKKPGESLKISCKGSGYSFTSYWIGWVRQMPGKGLEWMGIIYPGDADTRYSPSFQGQVTISADKSISTAYLQWSSLKASDTAMYYCARGIIYPSNVAVWGQGTLVTVSS
VL: SYELTQPPSVSVAPGQTARITCSGDALGDKYASWYQQKPGQAPVLVIYEDSKRPSGIPERFSGSNSGNTATLTISGTQAEDEADYYCSVWDGDWGMPVFGGGTKLTVLG
notes: Mutant of Ame55
B20: Ame55 mutant, heavy chain 53A (antibody, V domains shown)
VH: EVQLVQSGAEVKKPGESLKISCKGSGYSFTSYWIGWVRQMPGKGLEWMGIIYAGDSDTRYSPSFQGQVTISADKSISTAYLQWSSLKASDTAMYYCARGIIYPSNVAVWGQGTLVTVSS
VL: SYELTQPPSVSVAPGQTARITCSGDALGDKYASWYQQKPGQAPVLVIYEDSKRPSGIPERFSGSNSGNTATLTISGTQAEDEADYYCSVWDGDWGMPVFGGGTKLTVLG
notes: Mutant of Ame55
B21: Ame55 mutant, heavy chain 105A (antibody, V domains shown)
VH: EVQLVQSGAEVKKPGESLKISCKGSGYSFTSYWIGWVRQMPGKGLEWMGIIYPGDSDTRYSPSFQGQVTISADKSISTAYLQWSSLKASDTAMYYCARGIIYPSAVAVWGQGTLVTVSS
VL: SYELTQPPSVSVAPGQTARITCSGDALGDKYASWYQQKPGQAPVLVIYEDSKRPSGIPERFSGSNSGNTATLTISGTQAEDEADYYCSVWDGDWGMPVFGGGTKLTVLG
notes: Mutant of Ame55

Molecular target: T1, EGFR-Fc fusion protein (recombinant EGFR extracellular region-Fc) (human, UniProt P00533 25-645)
T1 construct: extracellular domain; not shown: Fc part supplied by vector pABG1
Test: BLI ForteBio QKe, biotinylated EGFR-Fc on streptavidin sensor, antibody 20 nM; fold reduction of affinity, parent Ame55 = 1;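 also: parent antibody affinity set as 1, with values giving the fold drop in affinity of each mutant antibody relative to that parent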

**Q.** Which Affinity change does the source give for B1 here?
**A.** > 10 fold

**Q.** Which Affinity change does the source give for B2 here?
**A.** > 10 fold

**Q.** Which Affinity change does the source give for B3 here?
**A.** > 10 fold

**Q.** How did the Affinity change turn out when B4 was run?
**A.** 0.2 fold

**Q.** With B5 as the binder, how does the Affinity change read?
**A.** 0.5 fold

**Q.** How did the Affinity change turn out when B6 was run?
**A.** > 10 fold

**Q.** With B7 as the binder, how does the Affinity change read?
**A.** 3 fold

**Q.** How did the Affinity change turn out when B8 was run?
**A.** > 10 fold

**Q.** How did the Affinity change turn out when B9 was run?
**A.** > 10 fold

**Q.** Which Affinity change does the source give for B10 here?
**A.** > 10 fold

**Q.** How did the Affinity change turn out when B11 was run?
**A.** > 10 fold

**Q.** Which Affinity change does the source give for B12 here?
**A.** > 10 fold

**Q.** With B13 as the binder, how does the Affinity change read?
**A.** 1.5 fold

**Q.** B14 was tested. Which Affinity change did it give?
**A.** > 100 fold

**Q.** How did the Affinity change turn out when B15 was run?
**A.** 5 fold

**Q.** With B16 as the binder, how does the Affinity change read?
**A.** 4 fold

**Q.** Which Affinity change does the source give for B17 here?
**A.** 5 fold

**Q.** For B18, which Affinity change is on record?
**A.** 5 fold

**Q.** For B19, which Affinity change is on record?
**A.** 1 fold

**Q.** With B20 as the binder, how does the Affinity change read?
**A.** 5 fold

**Q.** For B21, which Affinity change is on record?
**A.** > 10 fold
